Patent publication US20240124560A1

Legend:
[1] = target: HIV-1 Env of NAC_92BR020 (HIV-1); assay: cell-based or functional assay
[2] = target: HIV-1 Env of NAC_92RW020 (HIV-1); assay: cell-based or functional assay
[3] = target: HIV-1 Env of NAC_BaL.26 (HIV-1); assay: cell-based or functional assay
[4] = target: HIV-1 Env of NAC_DH12 (HIV-1); assay: cell-based or functional assay
[5] = target: HIV-1 Env of NAC_SS1196.1 (HIV-1); assay: cell-based or functional assay
[6] = target: HIV-1 Env of NAC_TRJO.58 (HIV-1); assay: cell-based or functional assay
[7] = target: HIV-1 Env of NAC_WITO.33 (HIV-1); assay: cell-based or functional assay
[8] = target: HIV-1 Env of NIH-025_ZM109F.PB4 (HIV-1); assay: cell-based or functional assay
[9] = target: HIV-1 Env of NIH-026_ZM135M.PL10a (HIV-1); assay: cell-based or functional assay
[10] = target: HIV-1 Env of NIH-029_HIV-001428.2.42 (HIV-1); assay: cell-based or functional assay
[11] = target: HIV-1 Env of NIH-046_1394C9G1(Rev.) (HIV-1); assay: cell-based or functional assay
[12] = target: HIV-1 Env of NIH-048_CNE19 (HIV-1); assay: cell-based or functional assay
[13] = target: HIV-1 Env of NIH-053_CNE52 (HIV-1); assay: cell-based or functional assay
[14] = target: HIV-1 Env of NIH-055_CNE58 (HIV-1); assay: cell-based or functional assay
[15] = target: HIV-1 Env of NIH-061_Q259ENVd2.17 (HIV-1); assay: cell-based or functional assay
[16] = target: HIV-1 Env of NIH-094_3817.v2.c59 (HIV-1); assay: cell-based or functional assay
[17] = target: HIV-1 Env of isolate COT6 (wild-type) (HIV-1); assay: cell-based or functional assay
[18] = target: HIV-1 Env of isolate COT6, mutant D674E (HIV-1); assay: cell-based or functional assay
[19] = target: HIV-1 Env of isolate COT6, mutant D674T (HIV-1); assay: cell-based or functional assay
[20] = target: HIV-1 Env of isolate Du156.12 (HIV-1); assay: cell-based or functional assay
[21] = target: HIV-1 Env of isolate NIH-084_X1254 c3 (HIV-1); assay: cell-based or functional assay
[22] = target: HIV-1 Env of pseudovirus NAC_KNH1144 (HIV-1); assay: cell-based or functional assay
[23] = target: HIV-1 Env of pseudovirus NAC_WITO.33 (HIV-1); assay: cell-based or functional assay
[24] = target: HIV-1 Env of pseudovirus NAC_YU2 (HIV-1) (UniProt P35961); assay: cell-based or functional assay
[25] = target: HIV-1 Env of pseudovirus NIH-007_CAAN5342.A2 (HIV-1); assay: cell-based or functional assay
[26] = target: HIV-1 Env of pseudovirus NIH-013_6240.08.TA5.4622 (HIV-1); assay: cell-based or functional assay
[27] = target: HIV-1 Env of pseudovirus NIH-032_HIV-16845.2.22 (HIV-1); assay: cell-based or functional assay
[28] = target: HIV-1 Env of pseudovirus NIH-044_ZM247F.F7 (HIV-1); assay: cell-based or functional assay
[29] = target: HIV-1 Env of pseudovirus NIH-055_CNE58 (HIV-1); assay: cell-based or functional assay
[30] = target: HIV-1 Env of pseudovirus NIH-065_191955 A11 (HIV-1); assay: cell-based or functional assay
[31] = target: HIV-1 Env of pseudovirus NIH-088_X1632 S2 B10 (clade G) (HIV-1); assay: cell-based or functional assay
[32] = target: HIV-1 Env of pseudovirus NIH-089_3016.v5.c45 (clade D) (HIV-1); assay: cell-based or functional assay
[33] = target: HIV-1 Env of pseudovirus NIH-099_3301.v1.c24 (HIV-1); assay: cell-based or functional assay
[34] = target: HIV-1 Env of pseudovirus NIH-100_6041.v3.c23 (HIV-1); assay: cell-based or functional assay
[35] = target: HIV-1 Env of pseudovirus NIH-101_6540.v4.c1 (HIV-1); assay: cell-based or functional assay
[36] = target: envelope protein of control pseudovirus NAC_VSV; assay: cell-based or functional assay
[37] = target: full-length MPER peptide; assay: ELISA on peptide MPER (654-683), antibody titrated
[38] = target: 4E10-specific peptide; assay: ELISA on peptide MPER (671-683), antibody titrated
[39] = target: HIV-1 Du156.12 Env (HIV-1 Du156.12); assay: cell-based or functional assay
[40] = target: HIV-1 Env of isolate COT6, mutant D674S (HIV-1); assay: cell-based or functional assay
[41] = target: HIV-2 C1 chimera Env (HIV-2 (HIV-1 MPER) chimera); assay: cell-based or functional assay
[42] = target: HIV-2 C3 chimera Env (HIV-2 (HIV-1 MPER) chimera); assay: cell-based or functional assay
[43] = target: HIV-2 C4 chimera Env (HIV-2 (HIV-1 MPER) chimera); assay: cell-based or functional assay
[44] = target: HIV-2 Env (parental virus of the chimeras) (HIV-2); assay: cell-based or functional assay

VRC01 (antibody)
IC80 neutralization [1]: 0.23 µg/mL | IC80 neutralization [2]: 0.811 µg/mL | IC80 neutralization [3]: 0.037 µg/mL | IC80 neutralization [4]: 0.898 µg/mL | IC80 neutralization [5]: 0.659 µg/mL | IC80 neutralization [6]: 0.223 µg/mL | IC80 neutralization [7]: 0.228 µg/mL | IC80 neutralization [8]: 0.296 µg/mL | IC80 neutralization [9]: 0.379 µg/mL | IC80 neutralization [10]: 0.068 µg/mL | IC80 neutralization [11]: 1.12 µg/mL | IC80 neutralization [12]: 0.512 µg/mL | IC80 neutralization [13]: 0.565 µg/mL | IC80 neutralization [14]: 0.331 µg/mL | IC80 neutralization [15]: 0.449 µg/mL | IC80 neutralization [16]: > 50 µg/mL | Fold increase in IC50 (wild-type COT6, the reference) [17]: 1 fold | Fold increase in IC50 relative to wild-type COT6 [18]: 1.2 fold | Fold increase in IC50 relative to wild-type COT6 [19]: 1 fold | Fold change (IC50 wash)/(IC50 no wash) [20]: 1.5 fold | IC50 (µg/ml), no wash [20]: 0.11 µg/mL | IC50 (µg/ml), wash [20]: 0.16 µg/mL | IC80 (µg/ml), TZM-bl pseudovirus neutralization [21]: 0.149 µg/mL | neutralization IC50 [22]: 0.134 µg/mL | neutralization IC50 [23]: 0.055 µg/mL | neutralization IC50 [24]: 0.123 µg/mL | neutralization IC50 [25]: 0.691 µg/mL | neutralization IC50 [26]: 0.604 µg/mL | neutralization IC50 [27]: 0.968 µg/mL | neutralization IC50 [28]: 0.236 µg/mL | neutralization IC50 [29]: 0.083 µg/mL | neutralization IC50 [30]: 0.091 µg/mL | IC50 (µg/ml), TZM-bl cell neutralization assay, pseudovirus [31]: 0.338 µg/mL | IC50 (µg/ml), TZM-bl cell neutralization assay, pseudovirus [32]: 0.058 µg/mL | neutralization IC50 [33]: 0.112 µg/mL | neutralization IC50 [34]: 0.023 µg/mL | neutralization IC50 [35]: > 50 µg/mL | IC50 (µg/ml), TZM-bl cell neutralization assay, control pseudovirus [36]: > 50 µg/mL | IC80 (µg/ml), TZM-bl pseudovirus neutralization [36]: > 50 µg/mL

PGZL1 (antibody)
IC80 neutralization [1]: > 50 µg/mL | IC80 neutralization [2]: > 50 µg/mL | IC80 neutralization [3]: > 50 µg/mL | IC80 neutralization [4]: 19 µg/mL | IC80 neutralization [5]: 22.2 µg/mL | IC80 neutralization [6]: > 50 µg/mL | IC80 neutralization [7]: 15.1 µg/mL | IC80 neutralization [8]: 29.7 µg/mL | IC80 neutralization [9]: 2.08 µg/mL | IC80 neutralization [10]: > 50 µg/mL | IC80 neutralization [11]: 34.3 µg/mL | IC80 neutralization [12]: 12.1 µg/mL | IC80 neutralization [13]: > 50 µg/mL | IC80 neutralization [14]: 14.5 µg/mL | IC80 neutralization [15]: > 50 µg/mL | IC80 neutralization [16]: > 50 µg/mL | IC80 (µg/ml), TZM-bl pseudovirus neutralization [21]: > 50 µg/mL | neutralization IC50 [22]: > 50 µg/mL | neutralization IC50 [23]: 3.56 µg/mL | neutralization IC50 [24]: > 50 µg/mL | neutralization IC50 [25]: 34 µg/mL | neutralization IC50 [26]: 35.8 µg/mL | neutralization IC50 [27]: 0.424 µg/mL | neutralization IC50 [29]: 3.55 µg/mL | neutralization IC50 [30]: 1.89 µg/mL | IC50 (µg/ml), TZM-bl cell neutralization assay, pseudovirus [31]: 15.5 µg/mL | IC50 (µg/ml), TZM-bl cell neutralization assay, pseudovirus [32]: 2.4 µg/mL | neutralization IC50 [33]: > 50 µg/mL | neutralization IC50 [34]: > 50 µg/mL | neutralization IC50 [35]: > 50 µg/mL | IC50 (µg/ml), TZM-bl cell neutralization assay, control pseudovirus [36]: > 50 µg/mL | IC80 (µg/ml), TZM-bl pseudovirus neutralization [36]: > 50 µg/mL | EC50 (read off the curve) [37]: 0.02 µg/mL | EC50 (read off the curve) [38]: 0.02 µg/mL

4E10 (antibody)
IC50 (µg/ml), neutralization of HIV-1 Du156.12 [39]: 0.101 µg/mL | IC80 neutralization [1]: 13.5 µg/mL | IC80 neutralization [2]: 9.61 µg/mL | IC80 neutralization [3]: 17.1 µg/mL | IC80 neutralization [4]: 4.89 µg/mL | IC80 neutralization [5]: 3.96 µg/mL | IC80 neutralization [6]: 11.6 µg/mL | IC80 neutralization [7]: 1.82 µg/mL | IC80 neutralization [8]: 3.17 µg/mL | IC80 neutralization [9]: 0.936 µg/mL | IC80 neutralization [10]: 24.7 µg/mL | IC80 neutralization [11]: 10.4 µg/mL | IC80 neutralization [12]: 1.43 µg/mL | IC80 neutralization [13]: 3.85 µg/mL | IC80 neutralization [14]: 2.24 µg/mL | IC80 neutralization [15]: 28.9 µg/mL | IC80 neutralization [16]: 2.12 µg/mL | Fold increase in IC50 (wild-type COT6, the reference) [17]: 1 fold | Fold increase in IC50 relative to wild-type COT6 [18]: 10 fold | Fold increase in IC50 relative to wild-type COT6 [40]: 1.65 fold | Fold increase in IC50 relative to wild-type COT6 [19]: 25 fold | IC80 (µg/ml), TZM-bl pseudovirus neutralization [21]: 11.8 µg/mL | neutralization IC50 [22]: 11.5 µg/mL | neutralization IC50 [23]: 0.435 µg/mL | neutralization IC50 [24]: 15.9 µg/mL | neutralization IC50 [25]: 2.84 µg/mL | neutralization IC50 [26]: 9.78 µg/mL | neutralization IC50 [27]: 0.097 µg/mL | neutralization IC50 [28]: 1.85 µg/mL | neutralization IC50 [29]: 0.563 µg/mL | neutralization IC50 [30]: 0.011 µg/mL | IC50 (µg/ml), TZM-bl cell neutralization assay, pseudovirus [31]: 2.57 µg/mL | IC50 (µg/ml), TZM-bl cell neutralization assay, pseudovirus [32]: 0.915 µg/mL | neutralization IC50 [33]: 20.3 µg/mL | neutralization IC50 [34]: 5.48 µg/mL | neutralization IC50 [35]: 5.63 µg/mL | IC50 (µg/ml), neutralization of chimeric virus [41]: 0.8 µg/mL | IC50 (µg/ml), neutralization of chimeric virus [42]: > 10 µg/mL | IC50 (µg/ml), neutralization of chimeric virus [43]: 1.41 µg/mL | IC50 (µg/ml), neutralization of HIV-2 [44]: > 10 µg/mL | IC50 (µg/ml), TZM-bl cell neutralization assay, control pseudovirus [36]: > 50 µg/mL | IC80 (µg/ml), TZM-bl pseudovirus neutralization [36]: > 50 µg/mL | EC50 (read off the curve) [37]: 0.03 µg/mL | EC50 (read off the curve) [38]: 0.02 µg/mL
